Experimental data published in patent publication US12630600B2 (MEDIMMUNE LIMITED, priority 2022, dated 2026).
Starred links: 1 amine or outer side, 2 acyl side, 3 side chain; linkers in the order of their positions; H or OH if unused. Non-standard residues stand in square brackets, D forms with d. Groups on a side chain read outwards from the residue. No end group written: not given here. *: point of attachment. C20 diacid = O=C(O)CCCCCCCCCCCCCCCCCCC(=O)*; C18 diacid = O=C(O)CCCCCCCCCCCCCCCCC(=O)*; γGlu = O=C(O)[C@H](CCC(=O)[*:2])N[*:1]; αMeF = C[C@](N)(Cc1ccccc1)C(=O)O; AEEA = NCCOCCOCC(=O)O; Aib = CC(C)(N)C(=O)O

Experiments:
[1] = biological target: human GLP-1 receptor (human, UniProt P43220); experiment: cell-based or functional assay
[2] = biological target: human glucagon receptor (human, UniProt P47871); experiment: cell-based or functional assay

Row | hGLP-1R EC50 (pM) [1] | hGluc-R EC50 (pM) [2] | Binder
1 | 70.5 pM | 27.2 pM | H[Aib]HGS[αMeF]TSDVSK[αMeF]LDSRAAK([AEEA-AEEA-γGlu-C18 diacid])D[αMeF]VE[Aib]IANT-NH2 [Peptide 227]
2 | 34.9 pM | 145 pM | H[Aib]HGS[αMeF]TSDVSK[αMeF]LDSRAAK([AEEA-AEEA-γGlu-C18 diacid])D[αMeF]VQ[Aib]IANT-NH2 (N-terminus assumed; SMILES CC[C@H](C)[C@H](NC(=O)C(C)(C)NC(=O)[C@H](CCC(N)=O)NC(=O)[C@@H](NC(=O)[C@](C)(Cc1ccccc1)NC(=O)[C@H](CC(=O)O)NC(=O)[C@H](CCCCNC(=O)COCCOCCNC(=O)COCCOCCNC(=O)CC[C@H](NC(=O)CCCCCCCCCCCCCCCCC(=O)O)C(=O)O)NC(=O)[C@H](C)NC(=O)[C@H](C)NC(=O)[C@H](CCCNC(=N)N)NC(=O)[C@H](CO)NC(=O)[C@H](CC(=O)O)NC(=O)[C@H](CC(C)C)NC(=O)[C@](C)(Cc1ccccc1)NC(=O)[C@H](CCCCN)NC(=O)[C@H](CO)NC(=O)[C@@H](NC(=O)[C@H](CC(=O)O)NC(=O)[C@H](CO)NC(=O)[C@@H](NC(=O)[C@](C)(Cc1ccccc1)NC(=O)[C@H](CO)NC(=O)CNC(=O)[C@H](Cc1c[nH]cn1)NC(=O)C(C)(C)NC(=O)[C@@H](N)Cc1c[nH]cn1)[C@@H](C)O)C(C)C)C(C)C)C(=O)N[C@@H](C)C(=O)N[C@@H](CC(N)=O)C(=O)N[C@H](C(N)=O)[C@@H](C)O) [Peptide 225]
3 | 534 pM | 141 pM | H[Aib]HGS[αMeF]TSDVSK[αMeF]LDSRAAK([AEEA-AEEA-γGlu-γGlu-C20 diacid])DFVEWIANT-NH2 (N-terminus assumed; SMILES CC[C@H](C)[C@H](NC(=O)[C@H](Cc1c[nH]c2ccccc12)NC(=O)[C@H](CCC(=O)O)NC(=O)[C@@H](NC(=O)[C@H](Cc1ccccc1)NC(=O)[C@H](CC(=O)O)NC(=O)[C@H](CCCCNC(=O)COCCOCCNC(=O)COCCOCCNC(=O)CC[C@H](NC(=O)CC[C@H](NC(=O)CCCCCCCCCCCCCCCCCCC(=O)O)C(=O)O)C(=O)O)NC(=O)[C@H](C)NC(=O)[C@H](C)NC(=O)[C@H](CCCNC(=N)N)NC(=O)[C@H](CO)NC(=O)[C@H](CC(=O)O)NC(=O)[C@H](CC(C)C)NC(=O)[C@](C)(Cc1ccccc1)NC(=O)[C@H](CCCCN)NC(=O)[C@H](CO)NC(=O)[C@@H](NC(=O)[C@H](CC(=O)O)NC(=O)[C@H](CO)NC(=O)[C@@H](NC(=O)[C@](C)(Cc1ccccc1)NC(=O)[C@H](CO)NC(=O)CNC(=O)[C@H](Cc1c[nH]cn1)NC(=O)C(C)(C)NC(=O)[C@@H](N)Cc1c[nH]cn1)[C@@H](C)O)C(C)C)C(C)C)C(=O)N[C@@H](C)C(=O)N[C@@H](CC(N)=O)C(=O)N[C@H](C(N)=O)[C@@H](C)O) [Peptide 213]
4 | 7620 pM | 2610 pM | H[Aib]HGS[αMeF]TSDVSK[αMeF]LDSRAAK([AEEA-AEEA-γGlu-C20 diacid])D[αMeF]VQWIANT-NH2 (N-terminus assumed; SMILES CC[C@H](C)[C@H](NC(=O)[C@H](Cc1c[nH]c2ccccc12)NC(=O)[C@H](CCC(N)=O)NC(=O)[C@@H](NC(=O)[C@](C)(Cc1ccccc1)NC(=O)[C@H](CC(=O)O)NC(=O)[C@H](CCCCNC(=O)COCCOCCNC(=O)COCCOCCNC(=O)CC[C@H](NC(=O)CCCCCCCCCCCCCCCCCCC(=O)O)C(=O)O)NC(=O)[C@H](C)NC(=O)[C@H](C)NC(=O)[C@H](CCCNC(=N)N)NC(=O)[C@H](CO)NC(=O)[C@H](CC(=O)O)NC(=O)[C@H](CC(C)C)NC(=O)[C@](C)(Cc1ccccc1)NC(=O)[C@H](CCCCN)NC(=O)[C@H](CO)NC(=O)[C@@H](NC(=O)[C@H](CC(=O)O)NC(=O)[C@H](CO)NC(=O)[C@@H](NC(=O)[C@](C)(Cc1ccccc1)NC(=O)[C@H](CO)NC(=O)CNC(=O)[C@H](Cc1c[nH]cn1)NC(=O)C(C)(C)NC(=O)[C@@H](N)Cc1c[nH]cn1)[C@@H](C)O)C(C)C)C(C)C)C(=O)N[C@@H](C)C(=O)N[C@@H](CC(N)=O)C(=O)N[C@H](C(N)=O)[C@@H](C)O) [Peptide 215]
5 | 122 pM | 123 pM | H[Aib]HGS[αMeF]TSDVSK[αMeF]LDSR[Aib]AK([AEEA-AEEA-γGlu-γGlu-C20 diacid])DFVQ[Aib]IANT-NH2 (N-terminus assumed; SMILES CC[C@H](C)[C@H](NC(=O)C(C)(C)NC(=O)[C@H](CCC(N)=O)NC(=O)[C@@H](NC(=O)[C@H](Cc1ccccc1)NC(=O)[C@H](CC(=O)O)NC(=O)[C@H](CCCCNC(=O)COCCOCCNC(=O)COCCOCCNC(=O)CC[C@H](NC(=O)CC[C@H](NC(=O)CCCCCCCCCCCCCCCCCCC(=O)O)C(=O)O)C(=O)O)NC(=O)[C@H](C)NC(=O)C(C)(C)NC(=O)[C@H](CCCNC(=N)N)NC(=O)[C@H](CO)NC(=O)[C@H](CC(=O)O)NC(=O)[C@H](CC(C)C)NC(=O)[C@](C)(Cc1ccccc1)NC(=O)[C@H](CCCCN)NC(=O)[C@H](CO)NC(=O)[C@@H](NC(=O)[C@H](CC(=O)O)NC(=O)[C@H](CO)NC(=O)[C@@H](NC(=O)[C@](C)(Cc1ccccc1)NC(=O)[C@H](CO)NC(=O)CNC(=O)[C@H](Cc1c[nH]cn1)NC(=O)C(C)(C)NC(=O)[C@@H](N)Cc1c[nH]cn1)[C@@H](C)O)C(C)C)C(C)C)C(=O)N[C@@H](C)C(=O)N[C@@H](CC(N)=O)C(=O)N[C@H](C(N)=O)[C@@H](C)O) [Peptide 221]

More lines, now with the values behind:

Row | Binder | hGLP-1R EC50 (pM) [1] | hGluc-R EC50 (pM) [2]
6 | H[Aib]HGS[αMeF]TSDVSK[αMeF]LDSRAAKD[αMeF]IA[Aib]IANT-NH2 (not fully specified (residue 20)) [Peptide 228] | 200 pM | 177 pM
7 | H[Aib]QGT[αMeF]TSDVSK[αMeF]LDSRAAK([AEEA-AEEA-γGlu-C18 diacid])DFVQWIANT-NH2 (N-terminus assumed; SMILES CC[C@H](C)[C@H](NC(=O)[C@H](Cc1c[nH]c2ccccc12)NC(=O)[C@H](CCC(N)=O)NC(=O)[C@@H](NC(=O)[C@H](Cc1ccccc1)NC(=O)[C@H](CC(=O)O)NC(=O)[C@H](CCCCNC(=O)COCCOCCNC(=O)COCCOCCNC(=O)CC[C@H](NC(=O)CCCCCCCCCCCCCCCCC(=O)O)C(=O)O)NC(=O)[C@H](C)NC(=O)[C@H](C)NC(=O)[C@H](CCCNC(=N)N)NC(=O)[C@H](CO)NC(=O)[C@H](CC(=O)O)NC(=O)[C@H](CC(C)C)NC(=O)[C@](C)(Cc1ccccc1)NC(=O)[C@H](CCCCN)NC(=O)[C@H](CO)NC(=O)[C@@H](NC(=O)[C@H](CC(=O)O)NC(=O)[C@H](CO)NC(=O)[C@@H](NC(=O)[C@](C)(Cc1ccccc1)NC(=O)[C@@H](NC(=O)CNC(=O)[C@H](CCC(N)=O)NC(=O)C(C)(C)NC(=O)[C@@H](N)Cc1c[nH]cn1)[C@@H](C)O)[C@@H](C)O)C(C)C)C(C)C)C(=O)N[C@@H](C)C(=O)N[C@@H](CC(N)=O)C(=O)N[C@H](C(N)=O)[C@@H](C)O) [Peptide 205] | 29.9 pM | 8.14 pM
8 | H[Aib]HGS[αMeF]TSDVSK[αMeF]LDSRAAK([AEEA-AEEA-γGlu-γGlu-C20 diacid])D[αMeF]VQ[Aib]IANTGG-NH2 (N-terminus assumed; SMILES CC[C@H](C)[C@H](NC(=O)C(C)(C)NC(=O)[C@H](CCC(N)=O)NC(=O)[C@@H](NC(=O)[C@](C)(Cc1ccccc1)NC(=O)[C@H](CC(=O)O)NC(=O)[C@H](CCCCNC(=O)COCCOCCNC(=O)COCCOCCNC(=O)CC[C@H](NC(=O)CC[C@H](NC(=O)CCCCCCCCCCCCCCCCCCC(=O)O)C(=O)O)C(=O)O)NC(=O)[C@H](C)NC(=O)[C@H](C)NC(=O)[C@H](CCCNC(=N)N)NC(=O)[C@H](CO)NC(=O)[C@H](CC(=O)O)NC(=O)[C@H](CC(C)C)NC(=O)[C@](C)(Cc1ccccc1)NC(=O)[C@H](CCCCN)NC(=O)[C@H](CO)NC(=O)[C@@H](NC(=O)[C@H](CC(=O)O)NC(=O)[C@H](CO)NC(=O)[C@@H](NC(=O)[C@](C)(Cc1ccccc1)NC(=O)[C@H](CO)NC(=O)CNC(=O)[C@H](Cc1c[nH]cn1)NC(=O)C(C)(C)NC(=O)[C@@H](N)Cc1c[nH]cn1)[C@@H](C)O)C(C)C)C(C)C)C(=O)N[C@@H](C)C(=O)N[C@@H](CC(N)=O)C(=O)N[C@H](C(=O)NCC(=O)NCC(N)=O)[C@@H](C)O) [Peptide 233] |  | 407 pM
9 | H[Aib]HGS[αMeF]TSDVSK[αMeF]LDSRAAKD[αMeF]VQ[Aib]IANT-NH2 (not fully specified (residue 20)) [Peptide 230] | 170 pM | 37.1 pM
10 | H[Aib]HGS[αMeF]TSDVSK[αMeF]LDSQAAK([AEEA-AEEA-γGlu-γGlu-C18 diacid])DFVEWIANT-NH2 (N-terminus assumed; SMILES CC[C@H](C)[C@H](NC(=O)[C@H](Cc1c[nH]c2ccccc12)NC(=O)[C@H](CCC(=O)O)NC(=O)[C@@H](NC(=O)[C@H](Cc1ccccc1)NC(=O)[C@H](CC(=O)O)NC(=O)[C@H](CCCCNC(=O)COCCOCCNC(=O)COCCOCCNC(=O)CC[C@H](NC(=O)CC[C@H](NC(=O)CCCCCCCCCCCCCCCCC(=O)O)C(=O)O)C(=O)O)NC(=O)[C@H](C)NC(=O)[C@H](C)NC(=O)[C@H](CCC(N)=O)NC(=O)[C@H](CO)NC(=O)[C@H](CC(=O)O)NC(=O)[C@H](CC(C)C)NC(=O)[C@](C)(Cc1ccccc1)NC(=O)[C@H](CCCCN)NC(=O)[C@H](CO)NC(=O)[C@@H](NC(=O)[C@H](CC(=O)O)NC(=O)[C@H](CO)NC(=O)[C@@H](NC(=O)[C@](C)(Cc1ccccc1)NC(=O)[C@H](CO)NC(=O)CNC(=O)[C@H](Cc1c[nH]cn1)NC(=O)C(C)(C)NC(=O)[C@@H](N)Cc1c[nH]cn1)[C@@H](C)O)C(C)C)C(C)C)C(=O)N[C@@H](C)C(=O)N[C@@H](CC(N)=O)C(=O)N[C@H](C(N)=O)[C@@H](C)O) [Peptide 210] | 156 pM | 93.7 pM
11 | H[Aib]HGS[αMeF]TSDVSK[αMeF]LDSRAAKDFVQ[Aib]IANT-NH2 (not fully specified (residue 20)) [Peptide 222] | 151 pM | 244 pM
